In US20180105595A1 one finds reduction of WTE-CH12-mediated cytotoxicity of CAR+ T cells on U87MG-EGFRvIII, free WTE polypeptide, cytotoxicity % (LDH release) of anti-WTE CAR+ T cells on Huh-7-EGFRvIII cells and cytotoxicity % (LDH release) of anti-WTE CAR+ T cells on U87MG-EGFRvIII cells data, which are given here for two molecules.

The target in assay [1] is 2D8 scFv (anti-WTE)-CD8 hinge region-CD28a-CD28b-CD137-CD3ζ chimeric antigen receptor on T lymphocytes (human) (UniProt P01732). Put plainly: cell-based or functional assay.
In another assay the target is human EGFRvIII (human) (UniProt P00533). Put plainly: cell-based or functional assay.

Sequence of UniProt P01732 (P01732 other isoform, or with tags, fused parts or gaps mutant limits assumed): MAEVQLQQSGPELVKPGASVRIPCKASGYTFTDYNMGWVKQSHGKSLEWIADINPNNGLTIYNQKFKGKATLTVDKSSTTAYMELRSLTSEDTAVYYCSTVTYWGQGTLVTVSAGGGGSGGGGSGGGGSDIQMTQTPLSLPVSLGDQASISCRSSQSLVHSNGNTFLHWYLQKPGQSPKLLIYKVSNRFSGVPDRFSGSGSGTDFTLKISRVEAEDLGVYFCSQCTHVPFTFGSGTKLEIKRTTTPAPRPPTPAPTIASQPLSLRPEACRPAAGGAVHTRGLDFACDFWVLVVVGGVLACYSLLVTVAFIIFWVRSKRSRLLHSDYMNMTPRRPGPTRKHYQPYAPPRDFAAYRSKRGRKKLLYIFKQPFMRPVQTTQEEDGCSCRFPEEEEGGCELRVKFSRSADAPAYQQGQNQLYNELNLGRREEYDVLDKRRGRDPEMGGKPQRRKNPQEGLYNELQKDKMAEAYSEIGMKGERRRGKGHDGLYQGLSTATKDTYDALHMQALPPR

Turning to “WTE polypeptide (free) (from UniProt P00533 1189-1210)”, in assay [1], the reduction of WTE-CH12-mediated cytotoxicity of CAR+ T cells on U87MG-EGFRvIII, free WTE polypeptide at 2-fold molar concentration of WTE-CH12, against Experimental group 1 was 31.1% and the reduction of WTE-CH12-mediated cytotoxicity of CAR+ T cells on U87MG-EGFRvIII, free WTE polypeptide at 20-fold molar concentration of WTE-CH12, against Experimental group 1 was 87.8%.

B1: anti-human EGFRvIII WTE-CH12 antibody (antibody, V domains shown)
VH: DVQLQESGPGLVKPSQSLSLTCTVTAYSVTSDYAWNWIRQFPGNKLEWMGYISYSGTTRYNPSLKSRISITRDTSKNQFFLQLNSMTAEDTATYYCSRQGRGFPYWGQGTLVTVSA
VL: DILMTQSPSSMSVSLGDTVSITCHASQDINSNIGWLQQKPGKSFKGLIYHGTNLEDGVPSRFSGSGSGADYSLTISSLESEDFADYYCVQYAQFPWTFGGGTKLEIKR
As to B1, in the assay with human EGFRvIII (human), the cytotoxicity % (LDH release) of anti-WTE CAR+ T cells on Huh-7-EGFRvIII cells at 10^4 ng/ml WTE-CH12, effector:target 3:1 worked out at 93% and the cytotoxicity % (LDH release) of anti-WTE CAR+ T cells on U87MG-EGFRvIII cells at 10^4 ng/ml WTE-CH12, effector:target 10:1 stood at 98.3%.
